Data on two substances can be found in article PMC11988251.

The experiment deals with HuROR2-mFc. The experiment can be described thus: ELISA.

On to BA302, for which the EC50 (commonly the concentration giving half of the maximal effect) (pH 6.0, 1.26 g/L sodium bicarbonate, 0.09 g/L L-lactic acid) stood at 0.0119 µg/mL and the EC50 entry (pH 7.4, 1.26 g/L sodium bicarbonate, 0.09 g/L L-lactic acid) is “no meaningful EC50 could be calculated”.
Consider BA3021, for which the EC50 was 0.0563 µg/mL (pH 6.0, 2.5 g/L sodium bicarbonate) and “no meaningful EC50 could be calculated” (pH 7.4, 2.5 g/L sodium bicarbonate).
